Values joined by “and” are separate entries in the source; they are usually repeats but may differ in a detail not shown here. Identical values can stand only once.
T1: Arkadia SUMO-binding domain (residues 285-416), wild type (mouse, UniProt Q99ML9 285-416)
T1 construct: it holds SIM1, SOB and SIM2; Subcloned into pGEX-TEV/N (TEV site after the thrombin site); also called Arkadia-WT 285-416; SIM domain of Arkadia
T1 sequence (looked up): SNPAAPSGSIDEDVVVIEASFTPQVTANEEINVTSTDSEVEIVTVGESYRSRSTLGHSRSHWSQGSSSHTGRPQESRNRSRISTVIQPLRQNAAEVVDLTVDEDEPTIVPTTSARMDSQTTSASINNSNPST


Target: T1, Arkadia SUMO-binding domain (residues …)
Assay: ITC; iTC200; ITC buffer (50 mM Tris/HCl pH 7.5, 150 mM NaCl, 2 mM DTT, 5% glycerol), 30 °C; 20-30 injections up to a twofold to threefold molar excess; which partner was in the syringe is not told; single titrations and their mean
Conditions: both partners purified

Row | Kd | Binder
1 | 1400 nM and 3800 nM and 2100 nM | linear SUMO1-capped SUMO2 dimer (SUMO1-ΔN15 - SUMO2-ΔN11) (other) KKEGEYIKLKVIGQDSSEIHFKVKMTTHLKKLKESYCQRQGVPMNSLRFLFEGQRIADNHTPKELGMEEEDVIEVYQEQTRSTENNDHINLKVAGQDGSVVQFKIKRHTPLSKLMKAYCERQGLSMRQIRFRFDGQPINETDTPAQLEMEDEDTIDVFQQQTGG
2 | 3500 nM and 2100 nM and 2300 nM and 1500 nM | linear SUMO1-capped SUMO2 trimer (SUMO1-ΔN15 - 2xSUMO2-ΔN11) (other) KKEGEYIKLKVIGQDSSEIHFKVKMTTHLKKLKESYCQRQGVPMNSLRFLFEGQRIADNHTPKELGMEEEDVIEVYQEQTRSTENNDHINLKVAGQDGSVVQFKIKRHTPLSKLMKAYCERQGLSMRQIRFRFDGQPINETDTPAQLEMEDEDTIDVFQQQTRSTENNDHINLKVAGQDGSVVQFKIKRHTPLSKLMKAYCERQGLSMRQIRFRFDGQPINETDTPAQLEMEDEDTIDVFQQQTGG
